Data on one molecule can be found in publication PMC10501992, “How Pol α-primase is targeted to replisomes to prime eukaryotic DNA replication” (Molecular Cell, 2023).

One experiment has as its target T1, Tof1 (budding yeast) (S. cerevisiae, UniProt P53840 1-1238).
T1 construct: Tof1, S. cerevisiae; stood in the assay as a subunit of m13; source: subunit of Tof1-Csm3 from S. cerevisiae strain yAE48, purified as described previously
T1 sequence: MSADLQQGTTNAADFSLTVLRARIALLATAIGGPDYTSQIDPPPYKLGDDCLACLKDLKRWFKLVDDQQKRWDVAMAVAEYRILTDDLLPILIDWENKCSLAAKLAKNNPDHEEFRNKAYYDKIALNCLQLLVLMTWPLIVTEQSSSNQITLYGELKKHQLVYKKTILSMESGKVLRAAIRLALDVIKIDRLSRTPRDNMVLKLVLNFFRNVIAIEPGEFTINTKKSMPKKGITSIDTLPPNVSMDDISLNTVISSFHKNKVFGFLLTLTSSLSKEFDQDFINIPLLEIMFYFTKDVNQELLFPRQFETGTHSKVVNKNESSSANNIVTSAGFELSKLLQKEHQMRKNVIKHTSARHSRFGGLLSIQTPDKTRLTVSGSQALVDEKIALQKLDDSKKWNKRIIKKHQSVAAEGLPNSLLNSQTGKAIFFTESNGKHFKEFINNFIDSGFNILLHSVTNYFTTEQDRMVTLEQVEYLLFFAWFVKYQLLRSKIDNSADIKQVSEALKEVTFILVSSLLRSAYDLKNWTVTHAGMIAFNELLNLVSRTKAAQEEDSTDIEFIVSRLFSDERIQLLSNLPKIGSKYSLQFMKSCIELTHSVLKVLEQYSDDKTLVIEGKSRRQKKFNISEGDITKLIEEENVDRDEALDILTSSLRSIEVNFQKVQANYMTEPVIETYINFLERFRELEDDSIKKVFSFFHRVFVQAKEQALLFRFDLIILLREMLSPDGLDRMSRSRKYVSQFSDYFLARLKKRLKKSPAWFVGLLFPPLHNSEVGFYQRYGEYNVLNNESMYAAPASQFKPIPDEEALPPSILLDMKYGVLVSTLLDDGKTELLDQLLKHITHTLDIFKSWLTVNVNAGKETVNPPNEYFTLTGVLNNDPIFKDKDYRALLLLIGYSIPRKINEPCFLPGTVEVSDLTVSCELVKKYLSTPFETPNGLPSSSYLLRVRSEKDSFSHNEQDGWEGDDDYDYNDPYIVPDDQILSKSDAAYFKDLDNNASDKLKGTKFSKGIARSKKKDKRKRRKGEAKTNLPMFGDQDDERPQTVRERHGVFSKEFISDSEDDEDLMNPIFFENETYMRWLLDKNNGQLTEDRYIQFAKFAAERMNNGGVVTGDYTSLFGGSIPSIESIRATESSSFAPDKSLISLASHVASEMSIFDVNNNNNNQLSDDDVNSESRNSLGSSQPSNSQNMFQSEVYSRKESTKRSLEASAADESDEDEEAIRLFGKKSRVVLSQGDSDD
The experiment in a line: cryo-EM structure; budding yeast replisome: 150 nM CMG on fork DNA (39 nt 3′ flap, 60 nt 5′ flap) with 1.5-fold molar excess of Tof1-Csm3, Mrc1 and Pol α-primase; 25 mM HEPES-NaOH pH 7.6, 150 mM NaOAc, 0.5 mM TCEP, 500 μM AMP-PNP, 10 mM Mg(OAc)2, on ice; 10-30% glycerol gradient with glutaraldehyde and BS3 cross-linkers. The conditions noted are these: both partners purified.

For experiment [1], the target named is T2, budding yeast CMG (Cdc45-Mcm2-7-GINS) replicative helicase (S. cerevisiae, UniProt Q08032 1-650; P29469 1-868; P24279 1-971; P30665 1-933; P29496 1-775; P53091 …).
T2 construct: Cdc45, S. cerevisiae; Mcm2, S. cerevisiae; Mcm3, S. cerevisiae; Mcm4, S. cerevisiae (named only within Mcm2-7); Mcm5, S. cerevisiae; Mcm6, S. cerevisiae (named only within Mcm2-7); Mcm7, S. cerevisiae (named only within Mcm2-7); Psf1, subunit of GINS, S. cerevisiae; Psf2, subunit of GINS, S. cerevisiae; Sld5, subunit of GINS, S. cerevisiae; source: S. cerevisiae strain yJY197, expressed and …
The description is as above. As to conditions: both partners purified.

B1: Mrc1 (budding yeast) (natural protein, S. cerevisiae)
chain: MDDALHALSSLTAKKRTTTYKKVAVPILDENDNTNGNGPNDIDNPPELTGNGFLFANATLNRVKNRLEGKKAPEQNHNNGKDRSENSLPTQLISNLYDGGEELEKSEVKDNSYSEKNVSSSFTQTQRIPVSIQQDKVFNVPIHSVNDGKPTQLIKEDGLVNETSQALKTPLTTGRPGATQRIDSSGATSQTQPIKSIEPQSQIITTSSNHSNALSPKIPIIPTELIGTSPLFQSIQNRGPDTQMDVPPQTAHDEDKTQAIGIPQATHQEQKTQIDTVAQTLQDEVPHTLKIREIQSELASEDSKREKARNVEYKKPQKPIPTKKFFSKESFLADFDDSSSNEDDDIKLENAHPKPVQNDDELHENKSVELNLTDETRINEKRVPLLSSYANNLKREIDSSKCITLDLDSDSDEYGDDDMDSIKLSKDESVLPISQLSKATILNLKARLSKQNQKLSQRPNKSKDPKVDHNVLLNTLRKASRKQILDHQKEVIETKGLKLEDMAKEKEIVENLLEQEILRNKRIRQKEKRREKLEENDFQLNAHDSGSDSGSESSGFALSGNEIADYESSGSENDNRRESDSEKEDDEIILKQKKSHHVKHIINESDSDTEVEAKPKEKADESLPKRIAINLGHYGDNIGEDTDKFQETNVLDTQNIEEVMAERNTIENEVKDDVYVNEEADEAIRRQLIDKEKLQLKQKEKEHEAKIKELKKRGVTNFFEMEAEESEDEWHGIGGADGEGSDDYDSDLEKMIDDYSKNNFNPHEIREMLAAENKEMDIKMINKILYDIKNGGFRNKRAKNSLELELSDDDEDDVLQQYRLKRRELMRKRRLEIGDDAKLVKNPKSSAFFESMVEDIIEYKNPFGAEEEYNLDITSTATDLDTQDNSINVGDNTGNNEQKPVDQKNKKVIISEDFVQKSLSFLKSNNYEDFETDKELSRIQHGNDEAIEDLYTLKQNSSIKSFTNSQTDSTTSKTVNTIIDLEKRPEDEDEVENGDTSLVGVFKHPSIIKSFASRTDINDKFKEGNKTVKILKSYKTVGSSKASITYMGKTRKLIAPKRKTEGSHRYHHDHHNKKMKMKTKTKSNKLFESGQDSFDN
notes: Mrc1, S. cerevisiae; several small sections modelled (S339-K323 as printed, D468-Q483, N842-E858); source: S. cerevisiae strain yJY32, expressed and purified as described previously
With B1, the binding result (with Tof1 (budding yeast); in experiment [1]) was “binds” in each case.
